Source: US20200157519A1 (IMMUNWORK, published 2020)
Substitutions are numbered along the chain they refer to.

T1: human fibrin (human fibrinogen coated on the plate and treated with thrombin) (human, UniProt P02671 36-629; P02675 45-491; P02679 27-437)
T1 construct: Made on the plate: coated human fibrinogen (Sigma) treated with 1.0 U/mL thrombin, CaCl2 and L-cysteine
T1 sequence (looked up) 1: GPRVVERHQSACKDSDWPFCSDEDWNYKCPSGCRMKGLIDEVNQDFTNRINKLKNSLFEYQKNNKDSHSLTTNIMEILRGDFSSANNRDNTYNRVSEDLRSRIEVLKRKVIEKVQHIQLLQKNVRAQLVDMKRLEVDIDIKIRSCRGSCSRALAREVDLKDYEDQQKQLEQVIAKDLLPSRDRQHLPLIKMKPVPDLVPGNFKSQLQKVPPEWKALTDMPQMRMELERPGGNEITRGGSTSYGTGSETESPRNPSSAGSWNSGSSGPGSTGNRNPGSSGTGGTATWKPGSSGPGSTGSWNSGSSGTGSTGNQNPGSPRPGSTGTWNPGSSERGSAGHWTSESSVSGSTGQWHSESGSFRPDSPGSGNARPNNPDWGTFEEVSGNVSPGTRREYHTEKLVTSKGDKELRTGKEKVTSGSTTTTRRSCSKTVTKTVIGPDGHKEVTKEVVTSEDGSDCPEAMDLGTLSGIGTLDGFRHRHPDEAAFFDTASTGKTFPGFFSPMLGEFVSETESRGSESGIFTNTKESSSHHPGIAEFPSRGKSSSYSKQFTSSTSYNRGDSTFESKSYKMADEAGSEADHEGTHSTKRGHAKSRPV
T1 sequence (looked up) 2: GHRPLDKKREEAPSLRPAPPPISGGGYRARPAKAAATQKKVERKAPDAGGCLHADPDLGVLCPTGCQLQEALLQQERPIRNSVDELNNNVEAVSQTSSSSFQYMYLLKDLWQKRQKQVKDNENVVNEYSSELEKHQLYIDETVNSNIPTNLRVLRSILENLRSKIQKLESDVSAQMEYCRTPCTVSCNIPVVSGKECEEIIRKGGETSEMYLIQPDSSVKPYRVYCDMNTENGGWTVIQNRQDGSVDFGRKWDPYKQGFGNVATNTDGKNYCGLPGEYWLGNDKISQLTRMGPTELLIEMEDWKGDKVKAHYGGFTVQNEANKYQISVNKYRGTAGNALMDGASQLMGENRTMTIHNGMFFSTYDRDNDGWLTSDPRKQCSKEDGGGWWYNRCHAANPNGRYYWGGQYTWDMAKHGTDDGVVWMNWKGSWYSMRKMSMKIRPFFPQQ
T1 sequence (looked up) 3: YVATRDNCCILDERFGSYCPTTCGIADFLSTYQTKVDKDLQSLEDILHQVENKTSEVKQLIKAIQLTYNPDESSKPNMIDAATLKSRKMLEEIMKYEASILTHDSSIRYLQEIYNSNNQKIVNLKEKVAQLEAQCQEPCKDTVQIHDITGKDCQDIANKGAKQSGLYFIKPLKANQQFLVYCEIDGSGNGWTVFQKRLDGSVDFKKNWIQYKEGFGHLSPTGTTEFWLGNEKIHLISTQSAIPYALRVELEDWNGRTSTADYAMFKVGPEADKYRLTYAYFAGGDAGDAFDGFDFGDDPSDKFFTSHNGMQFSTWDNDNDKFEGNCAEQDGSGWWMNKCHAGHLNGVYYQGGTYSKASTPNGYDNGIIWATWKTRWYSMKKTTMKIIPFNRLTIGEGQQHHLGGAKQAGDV

T2: crosslinked human fibrin treated by human factor XIIIa (human, UniProt P02671 36-629; P02675 45-491; P02679 27-437, crosslinked by factor XIIIa)
T2 construct: Coated human fibrinogen treated with thrombin and 0.55 ug factor XIIIa (Zedira) per well; also called crosslinked fibrin
T2 sequence (looked up) 1: T1 sequence (looked up) 1
T2 sequence (looked up) 2: T1 sequence (looked up) 2
T2 sequence (looked up) 3: T1 sequence (looked up) 3

B1: recombinant anti-fibrin 3D5 antibody (full-length) (antibody, human IgG1, kappa, V domains shown)
VH: EVQLVESGGGLVQPGGSLRLSCAASGFTISDFGIHWVRQAPGKGLEWVASIWPSGGYTYYADSVKGRFTISADTSKNTAYLQMNSLRAEDTAVYYCARSWFYSWYDYWGQGTLVTVSS
VL: DIQMTQSPSSLSASVGDRVTITCRASQDVSNNVAWYQQKPGKAPKLLIFWSPWLYSGVPSRFSGSGSGTDFTLTISSLQPEDFATYYCQQGWDSPVTFGQGTKVEIKR
notes: Expressed from the pG1K vector in Expi293F cells, purified on Protein A
B2: recombinant anti-fibrin 102-10 antibody (full-length) (antibody, human IgG1, kappa, V domains shown)
VH: QIQLVQSGPELKKPGETVKISCKASGYTFTNYGMNWVKQAPGKGLKWMGWINTYTGEATYADDFKGRFAFSLETSANTAYVQINNLKNEDTATYFCARLMDYWGQGTSVTVSS
VL: DIQMTQSPSSLSASLGGKVTITCKASQDINKYIAWFQHKPGKGPRLLIHYTSTLQPGIPSRFSGSGSGRDYSFSISNLEPEDLATYYCLQYDNLTWTFGGGTKLEIKR
B3: phage-displayed 3D5 scFv (scFv)
scFv: DIQMTQSPSSLSASVGDRVTITCRASQDVSNNVAWYQQKPGKAPKLLIFWSPWLYSGVPSRFSGSGSGTDFTLTISSLQPEDFATYYCQQGWDSPVTFGQGTKVEIKRGGGGSGGGGSGGGGSEVQLVESGGGLVQPGGSLRLSCAASGFTISDFGIHWVRQAPGKGLEWVASIWPSGGYTYYADSVKGRFTISADTSKNTAYLQMNSLRAEDTAVYYCARSWFYSWYDYWGQGTLVTVSS
notes: Tested as secreted scFv in culture supernatant, detected through its E-tag
B4: scFv clone 3C2 (scFv, V domains shown)
VH: EVQLVESGGGLVQPGGSLRLSCAASGFTIGNSSIHWVRQAPGKGLEWVAGIWPYWGSTYYADSVKGRFTISADTSKNTAYLQMNSLRAEDTAVYYCARFGINNDGFMDYWGQGTLVTVSS
VL: DIQMTQSPSSLSASVGDRVTITCRASQDVSGWVAWYQQKPGKAPKLLISSTGSLYSGVPSRFSGSGSGTDFTLTISSLQPEDFATYYCQQYYDFPITFGQGTKVEIKR
notes: Tested as a secreted scFv with E-tag from the phage library
B5: scFv clone 7A3 (scFv, V domains shown)
VH: EVQLVESGGGLVQPGGSLRLSCAASGFTINDWSIHWVRQAPGKGLEWVAYIGPFWGSTFYADSVKGRFTISADTSKNTAYLQMNSLRAEDTAVYYCARGYFGFDYWGQGTLVTVSS
VL: B4 VL with S30G, T51P, G52R, Y92F, D93S, F94S, I96F
notes: as for B4
B6: scFv clone 8F2 (scFv, V domains shown)
VH: EVQLVESGGGLVQPGGSLRLSCAASGFTINNYGIHWVRQAPGKGLEWVAGIWPYWGYTYYADSVKGRFTISADTSKNTAYLQMNSLRAEDTAVYYCARFDSNSYSSYSDGFMDYWGQGTLVTVSS
VL: B4 VL with S30D, G31N, W32S, T51A, G52R, D93N, F94Y
notes: as for B4

target: T1, human fibrin (human fibrinogen coated …); test: ELISA on fibrin-coated plate, HRP-protein L
Procedure: Each fibrin plate was prepared as follows. 100 μL of TBS containing a final concentration of 1.0 U/mL thrombin (Sigma), 2 mM CaCl, and 7 mM L-cysteine (Merck) was added to the wells of the fibrinogen plate, which was then washed with TBS and blocked with the buffer (5% non-fat dry milk/PBS). After the blocking, 100 μL of antibodies were added to each well, and the plate was incubated at room temperature for 1 hour. The plate was then washed three times, the HRP-conjugated protein L diluted to 1/5000 was added to the wells and incubated for 1 hour at room temperature. The wells were washed three times and added with 100 μL of TMB substrate buffer. 5 minutes later, the color development was stopped with 1 M HCl. The optical density (OD) was measured at 450 nm using a microplate reader.

Binder | binding result
B1 | binds
B2 | binds

target: T2, crosslinked human fibrin treated by …; test: ELISA on crosslinked fibrin plate, HRP-protein L

Binder | binding result
B1 | binds
B2 | binds

target: T1, human fibrin (human fibrinogen coated …); test: single colony ELISA, OD450 on fibrin divided by OD450 on fibrinogen
Procedure: (§1) E. coli strain ER2738 infected with single-clonal phages each harboring a selected scFv gene in its phagemid was grown in the mid-log phase in 2YT broth (16 g/L tryptone, 10 g/l yeast extract, 5 g/l NaCl, pH 7.0) with 100 μg/ml ampicillin in deep well at 37° C. with shaking. After broth reaching an OD₆₀₀ of 1.0, IPTG was added to a final concentration of 1 μg/ml. The plates were incubated at 37° C. overnight with rigorously shaking. Thereafter, the plates were centrifuged at 4,000 g for 15 minutes at 4° C.
(§2) For soluble scFv binding test, ELISA was carried out. In brief, 96-well Maxisorp 96-well plate (Nunc) was coated with fibrin (0.5 μg/100 μL PBS per well) or a negative control antigen, human fibrinogen, for 18 hours with shaking at 4° C. After treated with 300 μL of blocking buffer for one hour, 100 μL of secreted scFv in the supernatant was mixed with 100 μL of blocking buffer and then added to the coated plate for another one hour. Goat anti-E-tag antibody (conjugated with HRP, 1:4000, Cat. No. AB19400, Abcam) was added to the plate for one hour. TMB substrate (50 μL per well) was added to each well and the absorbance at 450 nm was measured after reactions were stopped by adding 1 N HCl (50 μL per well). The OD₄₅₀ for each well was measured to determine the binding affinity of each scFv clone to fibrin or fibrinogen. For each scFv clone, the OD₄₅₀ value with respect to fibrin was divided by with the OD₄₅₀ value with respect to fibrinogen to obtain an OD₄₅₀ ratio representing the selective binding of said scFv to fibrin over fibrinogen. In the single colony ELISA analysis, a total of 192 phage clones after the 3rd panning round was subjected to the present analysis. Among them, 12 scFv clones that bound to fibrin with an OD₄₅₀ ratio greater than 10 were further characterized by sequencing their scFv-coding gene. Six different DNA sequences were identified. […] The amino acid sequence of an scFv clone D10, which binds to human fibrin with an OD₄₅₀ of 1.3, is shown in SEQ ID NO: 4.

Binder | OD450 ratio (fibrin over fibrinogen)
B3 | 377
B4 | 64.9
B5 | 20.5
B6 | 14.4

target: T1, human fibrin (human fibrinogen coated …); test: single colony ELISA, secreted scFv on coated fibrin, anti-E-tag-HRP
Procedure: as §1, §2

Binder | OD450_Fibrin
B3 | 0.829 OD450
B4 | 0.759 OD450
B5 | 0.428 OD450
B6 | 0.527 OD450
